Source: paper PMC3931302

Experiments:
[1] = target: GST-HTTex1p 20QP (unexpanded HTT exon 1 with the proline-rich region); test: pull-down
[2] = target: GST-HTTex1p 51QP (expanded HTT exon 1 with the proline-rich region); test: pull-down

percent of 35S-labeled PIAS1 bound [1]: 7.75% | percent of 35S-labeled PIAS1 bound [2]: 7%
Substance: radiolabeled human PIAS1 (from UniProt O75925-1 1-651) (natural protein)
